Laboratory results reported in publication PMC3107735.
pKd: −log10 of the molar value.

Biological target: bovine α-thrombin (bovine)
Test: SPR

## TMEGF56, fragment of thrombomodulin with the fifth and sixth EGF-like domains (domain or fragment)
  pKd: 8.77
